Common to all, as to test: EMSA; EMSA; 15 fmol NCP (30 fmol unmodified NCP) per reaction; 5% native PAGE (37.5:1) in 0.4x TBE, 2% glycerol; binding buffer, pH and temperature not given (as in cited work)
One data set has as its target T1, Ioc4 2KE (Saccharomyces cerevisiae, UniProt Q04213 1-475, K149E;K150E).
T1 sequence: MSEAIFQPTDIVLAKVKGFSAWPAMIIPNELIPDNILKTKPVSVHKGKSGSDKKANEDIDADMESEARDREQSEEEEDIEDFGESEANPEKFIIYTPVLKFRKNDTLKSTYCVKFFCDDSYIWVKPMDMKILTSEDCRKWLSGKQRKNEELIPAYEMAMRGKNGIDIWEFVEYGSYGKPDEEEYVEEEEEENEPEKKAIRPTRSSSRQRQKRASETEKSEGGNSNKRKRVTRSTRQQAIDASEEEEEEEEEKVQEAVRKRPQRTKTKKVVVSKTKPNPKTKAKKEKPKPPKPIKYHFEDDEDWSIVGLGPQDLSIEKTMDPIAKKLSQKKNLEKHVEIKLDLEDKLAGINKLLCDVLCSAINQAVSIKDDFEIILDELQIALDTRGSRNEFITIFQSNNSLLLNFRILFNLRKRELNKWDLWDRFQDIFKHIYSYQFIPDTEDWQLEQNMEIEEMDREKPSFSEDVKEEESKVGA
As to conditions: protein: recombinant; tags: N-terminal 6xHis-MBP; label: Cy5 on sense strand; blunt.

The next data set deals with T2, Ioc4 PWWP 2KE (Saccharomyces cerevisiae, UniProt Q04213 1-178, K149E;K150E).
T2 sequence: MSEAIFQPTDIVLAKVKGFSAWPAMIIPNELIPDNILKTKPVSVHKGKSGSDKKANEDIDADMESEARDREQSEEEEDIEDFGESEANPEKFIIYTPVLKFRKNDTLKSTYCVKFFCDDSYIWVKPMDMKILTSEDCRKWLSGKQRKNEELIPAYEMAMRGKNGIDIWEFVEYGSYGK
The following applies: protein: recombinant; tags: N-terminal 6xHis; label: Cy5 on sense strand; blunt.

In another data set the target is T3, Ioc4 dPWWP (Saccharomyces cerevisiae, UniProt Q04213 179-475, del1-178).
T3 sequence: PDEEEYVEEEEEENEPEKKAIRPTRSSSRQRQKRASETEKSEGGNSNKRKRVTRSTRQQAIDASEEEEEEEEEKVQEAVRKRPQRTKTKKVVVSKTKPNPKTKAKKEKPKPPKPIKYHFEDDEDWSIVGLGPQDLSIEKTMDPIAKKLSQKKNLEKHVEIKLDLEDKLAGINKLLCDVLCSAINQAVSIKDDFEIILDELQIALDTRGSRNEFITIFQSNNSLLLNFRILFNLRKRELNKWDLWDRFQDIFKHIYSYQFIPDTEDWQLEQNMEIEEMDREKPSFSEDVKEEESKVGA
As to conditions: protein: recombinant; tags: N-terminal 6xHis-MBP; label: Cy5 on sense strand; blunt.

The target of the next data set is T4, Ioc4 PWWP 2KA (Saccharomyces cerevisiae, UniProt Q04213 1-178, K149A;K150A).
T4 sequence: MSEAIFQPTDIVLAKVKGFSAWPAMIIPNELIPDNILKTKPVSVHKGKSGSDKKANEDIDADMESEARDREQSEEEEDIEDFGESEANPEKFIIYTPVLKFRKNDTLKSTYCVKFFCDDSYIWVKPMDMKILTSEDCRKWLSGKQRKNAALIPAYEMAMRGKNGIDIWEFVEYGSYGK
The following applies: protein: recombinant; label: Cy5 on sense strand; blunt.

B1: dsDNA 30 bp (601-derived EMSA probe) (dsDNA)
DNA 1: GGCAAGGTCGCTGTTCAATACATGCACAGG
DNA 2: CCTGTGCATGTATTGAACAGCGACCTTGCC
Take B1: the Kd with Ioc4 2KE amounted to 76 nM; in the data set with Ioc4 dPWWP, 121 nM. Moreover, the binding result with Ioc4 PWWP 2KE and in the data set with Ioc4 PWWP 2KA was “no binding” in each case.
